# From patent publication US20160297884A1 (Pfizer, published 2016)
# Changes are numbered by the printed parent chain.
# B1: L3.PY/L3.KY/H3.YA (antibody, V domains shown)
# VH: EVQLLESGGGLVQPGGSLRLSCAASGFTFGSYAMTWVRQAPGKGLEWVSAISGSGGNTFYADSVKGRFTISRDNSKNTLYLQMNSLRAEDTAVYYCARVSPIYAGMDYWGQGTLVTVSS
# VL: EIVLTQSPGTLSLSPGERATLSCRASQSVSSSYLAWYQQKPGQAPRLLIYGASSRATGIPDRFSGSGSGTDFTLTISRLEPEDFAVYYCKYYPYPPSFTFGQGTKVEIK
# notes: IgG
# B2: COMBO_Rd4_0.6nM_C21 (antibody, V domains shown)
# VH: EVQLLESGGGLVQPGGSLRLSCAASGFTFSSYPMSWVRQAPGKGLEWVSAIGGSGGSLPYADSVKGRFTISRDNSKNTLYLQMNSLRAEDTAVYYCARYWPMDSWGQGTLVTVSS
# VL: EIVLTQSPGTLSLSPGERATLSCRASQSVSSSYLAWYQQKPGQAPRLLMYDASIRATGIPDRFSGSGSGTDFTLTISRLEPEDFAVYYCQQYQSWPLTFGQGTKVEIK
# notes: IgG
# B3: A02_Rd4_0.6nM_C03 (antibody, V domains shown)
# VH: B2 VH with P33A, S35N, G52S, G53D, L58K, P59W, D103S, S104L
# VL: B2 VL with Q93F, S94T
# notes: IgG
# B4: A02_Rd4_6nM_C25 (antibody, V domains shown)
# VH: B2 VH with P33A, S35N, G52S, G53D, L58R, P59W, D103T, S104P
# VL: B2 VL with Q93L, S94D
# notes: IgG
# B5: A02_Rd4_6nM_C05 (antibody, V domains shown)
# VH: B2 VH with P33A, S35N, G52F, G53A, L58T, P59Y, D103T, S104P
# VL: B2 VL with S94R
# notes: IgG
# B6: A02_Rd4_6nM_C23 (antibody, V domains shown)
# VH: B2 VH with P33A, S35N, G52S, G53D, L58G, P59W, D103S, S104L
# VL: B2 VL with S31V, S32E, Q93A, S94R
# notes: IgG
# B7: A02_Rd4_0.6nM_C01 (antibody, V domains shown)
# VH: B2 VH with P33A, S35N, G52L, G53S, L58T, P59Y, S104I
# VL: B2 VL with A25G, S26G
# notes: IgG; also called P5AC1
# B8: A02_Rd4_0.6nM_C26 (antibody, V domains shown)
# VH: B2 VH with P33A, S35N, G52L, G53M, L58T, P59Y, D103S, S104L
# VL: B2 VL with R24G, A25P
# notes: IgG
# B9: A02_Rd4_6nM_C08 (antibody, V domains shown)
# VH: B2 VH with P33A, S35N, G52L, G53D, L58T, P59Y, D103S, S104P
# VL: B2 VL with S31F, S32L, Q93G
# notes: IgG
# B10: A02_Rd4_0.6nM_C09 (antibody, V domains shown)
# VH: B2 VH with P33A, S35N, G52S, G53D, L58M, P59W, D103S, S104L
# VL: B2 VL
# notes: IgG
# B11: A02_Rd4_6nM_C22 (antibody, V domains shown)
# VH: B2 VH with P33A, S35N, I51V, G52L, G53D, L58T, P59Y, D103T, S104P
# VL: B2 VL with S94V
# notes: IgG
# B12: A02_Rd4_6nM_C03 (antibody, V domains shown)
# VH: B2 VH with P33A, S35N, G52S, G53D, L58T, P59Y, S104I
# VL: B2 VL with S31N, S32L, S94G
# notes: IgG
# B13: A02_Rd4_6nM_C04 (antibody, V domains shown)
# VH: B2 VH with P33A, S35N, G52M, G53S, S57P, P59Y, D103A, S104L
# VL: B2 VL with S31A, S32L, S94V
# notes: IgG
# B14: A02_Rd4_6nM_C10 (antibody, V domains shown)
# VH: B2 VH with P33A, S35N, G52S, G53D, L58C, P59W, D103T, S104P
# VL: B2 VL with S30E, S31M, Q93A, S94H
# notes: IgG
# B15: A02_Rd4_6nM_C19 (antibody, V domains shown)
# VH: B2 VH with P33A, S35N, G52S, G53D, L58R, P59W, D103S, S104D
# VL: B2 VL with S31V, S32L, Q93L, S94A
# notes: IgG
# B16: A02_Rd4_0.6nM_C13 (antibody, V domains shown)
# VH: B2 VH with P33A, S35N, G52S, G53D, S57Y, L58R, P59Y, D103S, S104L
# VL: B2 VL with L34W, Q93E
# notes: IgG
# B17: A02_Rd4_6nM_C07 (antibody, V domains shown)
# VH: B2 VH with P33A, S35N
# VL: B2 VL with S31P, S32Y, Q93E, S94R
# notes: IgG
# B18: A02_Rd4_0.6nM_C10 (antibody, V domains shown)
# VH: B2 VH with P33A, S35N, G52S, S54W
# VL: B2 VL with S31A, S32Q, S94R
# notes: IgG
# B19: A02_Rd4_6nM_C16 (antibody, V domains shown)
# VH: B2 VH with P33A, S35N, G52S, G53D, S54F, L58T, P59Y, S104I
# VL: B2 VL with S31D, S32L, S94T
# notes: IgG; also called P5AC16
# B20: A02_Rd4_6nM_C01 (antibody, V domains shown)
# VH: B2 VH with P33A, S35N, G52T, G53A, L58T, P59Y, D103S, S104L
# VL: B2 VL with S31A, S32Y, Q93E, S94R
# notes: IgG
# B21: A02_Rd4_0.6nM_C06 (antibody, V domains shown)
# VH: B2 VH with P33A, S35N, G52S, G53D, L58A, P59W, D103S, S104L
# VL: B2 VL with S31V, S32L, S94R
# notes: IgG
# Target: T1, Human BCMA (human, UniProt Q02223 1-54, limits assumed)
# T1 construct: Soluble analyte in SPR; construct not described; also called huBCMA; B-cell maturation antigen
# T1 sequence (looked up): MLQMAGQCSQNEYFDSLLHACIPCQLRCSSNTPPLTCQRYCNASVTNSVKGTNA
# Test: SPR, IgG immobilised, 37 C
# Experimental: (§1) All experiments were performed on a Bio-Rad Proteon XPR36 surface Plasmon resonance biosensor (Bio-Rad, Hercules, Calif.). […] The analysis temperature for the immobilization was 25° C. and the running buffer was HBS-T+(10 mM HEPES, 150 mM NaCl, 0.05% Tween-20, pH 7.4). Channels were activated in the analyte (horizontal) direction by injecting a mixture of 1 mM ECD and 0.25 mM NHS for 3 minutes at a flow rate of 30 μL/min. IgGs were immobilized on the activated spots by injecting them in the ligand (vertical) direction at 20 μg/mL in 10 mM Acetate pH 4.5 buffer for 1.5 minutes at […]. The activated surfaces were blocked by injecting 1M ethanolamine, pH 8.5 in the analyte direction for 3 minutes at 30 μL/min.
# (§2) The analysis temperature for the BCMA binding analysis was 37° C. or 25° C. in a running buffer of HBS-T+, supplemented with 1 mg/mL BSA. A kinetic titration method was employed for the interaction analysis as described in Abdiche, et al. Human BCMA (huBCMA) or cynomolgus monkey BCMA (cyBCMA) analyte was injected in the analyte direction using a series of injections from low to high concentration. The concentrations used were 0.08 nM, 0.4 nM, 2 nM, 10 nM and 50 nM (a 5-membered series, with a 5-fold dilution factor and top concentration of 50 nM). The association time for a given analyte dilution was two minutes. Immediately after the 50 nM BCMA injection, dissociation was monitored for 2 hours.
# (§3) The sensorgrams were double-referenced and fit to a 1:1 Langmuir with mass transport kinetic titration model in BIAevaluation Software version 4.1.1 (GE Lifesciences, Piscataway, N.J.).
Binder,Kd [pM],T ½ [min],koff [s⁻¹],kon [M⁻¹ s⁻¹]
B1,280,12.7,0.000912,3.3e+06

# Target: T2, Cynomolgus monkey BCMA (cynomolgus monkey)
# T2 construct: Soluble analyte in SPR; also called cyBCMA; Cyno BCMA
# Test: SPR, IgG immobilised, cyno BCMA analyte
# Experimental: as §1, §2, §3
Binder,Kd [pM],koff [s⁻¹],kon [M⁻¹ s⁻¹]
B2,84,0.000304,3.63e+06
B3,201,0.000426,2.12e+06
B4,220,0.00033,1.5e+06
B5,950,0.00129,1.36e+06
B6,157,0.000414,2.63e+06
B7,655,0.00157,2.39e+06
B8,941,0.00256,2.71e+06
B9,5070,0.0113,2.23e+06
B10,82,0.000174,2.13e+06
B11,176,0.000324,1.84e+06
B12,158,0.000185,1.17e+06
B13,381,0.000831,2.18e+06
B14,472,0.000898,1.9e+06
B15,260,0.000661,2.54e+06
B16,560,0.00128,2.29e+06
B17,1140,0.000786,691000
B18,1840,0.00163,883000
B19,118,0.000158,1.34e+06
B20,401,0.000583,1.45e+06
B21,58,0.000105,1.81e+06

# Target: T3, Human BCMA (human, UniProt Q02223 1-54, limits assumed)
# T3 construct: also called huBCMA; B-cell maturation antigen
# T3 sequence (looked up): T1 sequence (looked up)
# Test: SPR, IgG immobilised, human BCMA analyte
# Experimental: as §1, §2, §3
Binder,Kd [pM],koff [s⁻¹],kon [M⁻¹ s⁻¹]
B2,9,0.000115,1.34e+07
B3,43,0.000182,4.27e+06
B4,65,0.00018,2.75e+06
B5,99,0.000308,3.1e+06
B6,21,0.000255,1.22e+07
B7,193,0.000915,4.74e+06
B8,61,0.000443,7.26e+06
B9,188,0.000738,3.92e+06
B10,18,9.75e-05,5.5e+06
B11,54,0.000182,3.38e+06
B12,75,0.000126,1.69e+06
B13,135,0.000603,4.47e+06
B14,70,0.000315,4.51e+06
B15,49,0.000148,3e+06
B16,66,0.000566,8.53e+06
B17,128,0.000189,1.48e+06
B18,129,0.000296,2.3e+06
B19,90,0.000141,1.56e+06
B20,30,9.2e-05,3.11e+06
B21,21,7.37e-05,3.49e+06
